The numbers were not newly measured in article PMC3433420, which cites them from elsewhere.

Where two headings read alike, the source gives them in different places.

Among the targets are PLCG1-NC (Homo sapiens) (UniProt P19174); PLCG1-C (Homo sapiens) (UniProt P19174); PLCG2-NC (Homo sapiens) (UniProt P16885); PLCG2-N (Homo sapiens) (UniProt P16885); SHC2-PTB (Homo sapiens) (UniProt P98077); LYN (Homo sapiens) (UniProt P07948); TNS3 (Homo sapiens) (UniProt Q68CZ2); SH2B (Homo sapiens) (UniProt Q9NRF2); BCAR3 (Homo sapiens) (UniProt O75815); VAV3 (Homo sapiens) (UniProt Q9UKW4); SUPT6H (Homo sapiens) (UniProt Q7KZ85); SRC (Homo sapiens) (UniProt P12931); PIK3R1-NC (Homo sapiens) (UniProt P27986); CRK (Homo sapiens) (UniProt P46108); PIK3R2-N (Homo sapiens) (UniProt O00459); SH2B3 (Homo sapiens) (UniProt Q9UQQ2); PIK3R2-NC (Homo sapiens) (UniProt O00459); BLK (Homo sapiens) (UniProt P51451); SYK-C (Homo sapiens) (UniProt P43405); FGR (Homo sapiens) (UniProt P09769); SHB (Homo sapiens) (UniProt Q15464); PIK3R1-N (Homo sapiens) (UniProt P27986); GRB10 (Homo sapiens) (UniProt Q13322); YES1 (Homo sapiens) (UniProt P07947); GRB14 (Homo sapiens) (UniProt Q14449); ITK (Homo sapiens) (UniProt Q08881); SH2D3C (Homo sapiens) (UniProt Q8N5H7); MATK (Homo sapiens) (UniProt P42679); TENC1 (Homo sapiens) (UniProt Q63HR2); HSH2D (Homo sapiens) (UniProt Q96JZ2).

Settings in all cases: cited from earlier work
Series [1] addresses GRB7 (Homo sapiens) (UniProt Q14451).
Series [2] has as its target RASA1-N (Homo sapiens) (UniProt P20936).
Series [3] has as its target SHC1-PTB (Homo sapiens) (UniProt P29353).
Series [4] deals with SLA (Homo sapiens) (UniProt Q13239).
The target of series [5] is PIK3R3-NC (Homo sapiens) (UniProt Q92569).
Series [6] addresses VAV2 (Homo sapiens) (UniProt P52735).
The target of series [7] is ABL2 (Homo sapiens) (UniProt P42684).
Series [8] addresses SYK-NC (Homo sapiens) (UniProt P43405).
Series [9] addresses VAV2 (Homo sapiens) (UniProt P52735). The source holds these as a separate data set.
For series [10], the target named is GRB7 (Homo sapiens) (UniProt Q14451). This is another data set of the same source.
Series [11] deals with PIK3R3-NC (Homo sapiens) (UniProt Q92569). The source holds these as a separate data set.
The target of series [12] is RASA1-N (Homo sapiens) (UniProt P20936). This is another data set of the same source.
Series [13] has as its target RASA1-NC (Homo sapiens) (UniProt P20936).
The target of series [14] is VAV2 (Homo sapiens) (UniProt P52735). The source holds these as a separate data set.
Series [15] addresses TNS4 (Homo sapiens) (UniProt Q8IZW8).
The target of series [16] is SYK-NC (Homo sapiens) (UniProt P43405). The source holds these as a separate data set.
Series [17] has as its target SHC1-PTB (Homo sapiens) (UniProt P29353). The source holds these as a separate data set.
For series [18], the target named is ABL2 (Homo sapiens) (UniProt P42684). The source holds these as a separate data set.
The target in series [19] is NCK2 (Homo sapiens) (UniProt O43639).
In series [20] the target is SLA (Homo sapiens) (UniProt Q13239). The source holds these as a separate data set.
In series [21] the target is NCK2 (Homo sapiens) (UniProt O43639). The source holds these as a separate data set.
Series [22] has as its target GRB7 (Homo sapiens) (UniProt Q14451). This is another data set of the same source.
Series [23] has as its target TNS4 (Homo sapiens) (UniProt Q8IZW8). The source holds these as a separate data set.
In series [24] the target is SYK-NC (Homo sapiens) (UniProt P43405). This is another data set of the same source.
Series [25] concerns the target RASA1-NC (Homo sapiens) (UniProt P20936). The source holds these as a separate data set.
The target in series [26] is ABL2 (Homo sapiens) (UniProt P42684). This is another data set of the same source.
In series [27] the target is SHC1-PTB (Homo sapiens) (UniProt P29353). The source holds these as a separate data set.
SHC1-PTB (Homo sapiens), sequence (P29353 483-583): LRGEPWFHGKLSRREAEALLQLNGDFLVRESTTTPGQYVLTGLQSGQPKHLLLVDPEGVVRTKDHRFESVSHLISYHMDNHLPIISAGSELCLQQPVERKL

ABL2 (Homo sapiens), sequence (P42684 168-268): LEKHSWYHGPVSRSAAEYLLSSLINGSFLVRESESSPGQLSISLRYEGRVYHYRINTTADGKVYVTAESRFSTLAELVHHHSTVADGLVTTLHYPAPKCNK
VAV2 (Homo sapiens), sequence (P52735 668-772): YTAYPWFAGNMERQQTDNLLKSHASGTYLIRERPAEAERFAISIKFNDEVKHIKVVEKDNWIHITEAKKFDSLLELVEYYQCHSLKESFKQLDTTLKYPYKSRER
GRB7 (Homo sapiens), sequence (Q14451 426-532): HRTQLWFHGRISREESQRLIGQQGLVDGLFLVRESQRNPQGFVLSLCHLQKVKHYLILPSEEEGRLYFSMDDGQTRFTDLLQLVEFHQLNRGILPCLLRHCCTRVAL
RASA1-N (Homo sapiens), sequence (P20936 176-446): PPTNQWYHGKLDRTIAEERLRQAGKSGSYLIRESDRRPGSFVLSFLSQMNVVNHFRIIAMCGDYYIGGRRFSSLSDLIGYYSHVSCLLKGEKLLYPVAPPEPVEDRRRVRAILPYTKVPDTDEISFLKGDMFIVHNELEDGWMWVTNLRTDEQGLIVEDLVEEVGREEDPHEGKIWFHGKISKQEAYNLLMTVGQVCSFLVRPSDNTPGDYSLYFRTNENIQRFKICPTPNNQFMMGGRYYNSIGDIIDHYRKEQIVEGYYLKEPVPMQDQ
RASA1-NC (Homo sapiens), sequence (P20936 176-446): as above
SLA (Homo sapiens), sequence (Q13239 79-180): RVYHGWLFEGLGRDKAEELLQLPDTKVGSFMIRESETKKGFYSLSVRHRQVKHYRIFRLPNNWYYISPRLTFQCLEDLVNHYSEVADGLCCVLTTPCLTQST
NCK2 (Homo sapiens), sequence (O43639 280-380): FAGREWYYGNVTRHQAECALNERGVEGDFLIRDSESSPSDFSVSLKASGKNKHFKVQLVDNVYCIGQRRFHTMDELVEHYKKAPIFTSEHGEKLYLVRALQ
TNS4 (Homo sapiens), sequence (Q8IZW8 444-561): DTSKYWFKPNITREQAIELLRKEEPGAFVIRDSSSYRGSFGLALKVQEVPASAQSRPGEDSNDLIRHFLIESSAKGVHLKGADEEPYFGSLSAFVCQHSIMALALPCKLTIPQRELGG
SH2B3 (Homo sapiens), sequence (Q9UQQ2 359-467): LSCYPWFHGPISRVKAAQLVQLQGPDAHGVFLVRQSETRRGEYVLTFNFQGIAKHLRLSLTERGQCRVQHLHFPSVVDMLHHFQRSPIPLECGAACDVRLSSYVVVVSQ
ITK (Homo sapiens), sequence (Q08881 234-343): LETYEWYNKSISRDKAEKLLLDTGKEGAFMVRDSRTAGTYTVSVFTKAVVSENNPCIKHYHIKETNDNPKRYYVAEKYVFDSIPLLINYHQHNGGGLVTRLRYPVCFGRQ
SH2D3C (Homo sapiens), sequence (Q8N5H7 215-324): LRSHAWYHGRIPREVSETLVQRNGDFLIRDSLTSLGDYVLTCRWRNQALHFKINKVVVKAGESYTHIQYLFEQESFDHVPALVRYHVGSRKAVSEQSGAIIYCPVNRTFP
GRB10 (Homo sapiens), sequence (Q13322 488-579): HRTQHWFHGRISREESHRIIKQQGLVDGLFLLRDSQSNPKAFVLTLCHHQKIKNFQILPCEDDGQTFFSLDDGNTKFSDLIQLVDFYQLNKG
GRB14 (Homo sapiens), sequence (Q14449 434-540): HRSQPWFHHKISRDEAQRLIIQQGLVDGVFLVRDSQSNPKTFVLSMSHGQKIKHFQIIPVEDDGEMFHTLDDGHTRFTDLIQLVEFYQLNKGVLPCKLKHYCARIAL
TNS3 (Homo sapiens), sequence (Q68CZ2 1167-1287): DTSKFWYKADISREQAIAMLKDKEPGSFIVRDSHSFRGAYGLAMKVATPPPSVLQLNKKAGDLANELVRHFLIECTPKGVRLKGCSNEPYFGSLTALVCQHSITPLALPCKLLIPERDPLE
HSH2D (Homo sapiens), sequence (Q96JZ2 29-130): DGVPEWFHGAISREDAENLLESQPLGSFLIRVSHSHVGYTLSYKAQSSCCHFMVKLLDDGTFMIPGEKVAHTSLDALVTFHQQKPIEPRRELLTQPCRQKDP
BLK (Homo sapiens), sequence (P51451 119-225): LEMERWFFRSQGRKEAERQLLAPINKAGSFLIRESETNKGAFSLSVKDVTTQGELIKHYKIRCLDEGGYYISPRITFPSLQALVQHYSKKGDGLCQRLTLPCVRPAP
CRK (Homo sapiens), sequence (P46108 8-123): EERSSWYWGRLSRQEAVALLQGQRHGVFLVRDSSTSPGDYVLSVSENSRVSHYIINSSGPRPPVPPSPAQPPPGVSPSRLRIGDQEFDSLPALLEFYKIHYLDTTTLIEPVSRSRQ
LYN (Homo sapiens), sequence (P07948 124-231): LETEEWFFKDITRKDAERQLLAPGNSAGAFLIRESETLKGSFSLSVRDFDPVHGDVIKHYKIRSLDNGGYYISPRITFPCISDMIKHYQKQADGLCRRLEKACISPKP
SHB (Homo sapiens), sequence (Q15464 405-509): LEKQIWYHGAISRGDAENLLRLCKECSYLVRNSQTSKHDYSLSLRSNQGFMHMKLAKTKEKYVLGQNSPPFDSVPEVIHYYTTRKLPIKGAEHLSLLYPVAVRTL
SHC2-PTB (Homo sapiens), sequence (P98077 482-582): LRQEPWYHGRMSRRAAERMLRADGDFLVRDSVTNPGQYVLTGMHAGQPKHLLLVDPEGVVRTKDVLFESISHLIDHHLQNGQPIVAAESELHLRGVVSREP
VAV3 (Homo sapiens), sequence (Q9UKW4 667-771): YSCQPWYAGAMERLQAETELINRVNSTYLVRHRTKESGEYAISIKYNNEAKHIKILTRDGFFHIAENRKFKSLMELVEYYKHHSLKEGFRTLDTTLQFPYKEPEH
SUPT6H (Homo sapiens), sequence (Q7KZ85 1320-1436): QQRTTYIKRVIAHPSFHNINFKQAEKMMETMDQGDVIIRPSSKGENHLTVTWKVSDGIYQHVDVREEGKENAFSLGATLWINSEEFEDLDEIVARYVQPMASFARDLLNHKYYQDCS
MATK (Homo sapiens), sequence (P42679 117-216): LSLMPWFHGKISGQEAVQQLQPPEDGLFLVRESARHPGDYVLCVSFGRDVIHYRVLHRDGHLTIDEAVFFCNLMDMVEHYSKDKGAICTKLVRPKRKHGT
TENC1 (Homo sapiens), sequence (Q63HR2 1135-1252): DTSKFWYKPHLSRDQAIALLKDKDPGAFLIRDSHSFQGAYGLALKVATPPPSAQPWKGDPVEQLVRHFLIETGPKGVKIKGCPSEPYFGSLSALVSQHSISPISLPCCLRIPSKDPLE
PIK3R1-NC (Homo sapiens), sequence (P27986 328-723): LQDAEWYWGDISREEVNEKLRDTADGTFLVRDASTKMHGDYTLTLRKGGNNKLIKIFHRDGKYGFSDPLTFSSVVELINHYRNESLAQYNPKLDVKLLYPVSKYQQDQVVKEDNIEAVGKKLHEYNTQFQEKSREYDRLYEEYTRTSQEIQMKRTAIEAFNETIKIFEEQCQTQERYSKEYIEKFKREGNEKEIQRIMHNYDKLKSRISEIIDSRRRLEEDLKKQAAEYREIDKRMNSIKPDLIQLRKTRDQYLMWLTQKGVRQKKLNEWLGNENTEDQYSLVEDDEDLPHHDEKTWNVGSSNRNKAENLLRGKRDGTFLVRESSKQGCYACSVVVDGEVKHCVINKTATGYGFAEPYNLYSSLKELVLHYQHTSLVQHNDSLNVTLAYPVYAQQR
PIK3R1-N (Homo sapiens), sequence (P27986 328-723): as above
BCAR3 (Homo sapiens), sequence (O75815 149-258): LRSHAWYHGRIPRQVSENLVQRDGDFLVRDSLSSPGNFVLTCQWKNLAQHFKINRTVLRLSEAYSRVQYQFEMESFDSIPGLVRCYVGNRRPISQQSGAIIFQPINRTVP

…pYLQEYSTKd: the apparent Kd (screen) in the series with GRB7 (Homo sapiens) [1], in the series with RASA1-N (Homo sapiens) [2], with PLCG1-NC (Homo sapiens), with PLCG1-C (Homo sapiens), with SHC1-PTB (Homo sapiens) [3] and with SLA (Homo sapiens) [4] was 2000 nM throughout. Further, the apparent Kd (screen) in the series with PIK3R3-NC (Homo sapiens) [5] is 2000 nM; in the series with VAV2 (Homo sapiens) [6] it was 769 nM; with ABL2 (Homo sapiens) [7], 883 nM; with SYK-NC (Homo sapiens) [8], 2000 nM; in the series with VAV2 (Homo sapiens) [9], 2000 nM.
As for …pYQQDFFPKd, the apparent Kd (screen) was 674 nM with PLCG2-NC (Homo sapiens); 2000 nM with GRB7 (Homo sapiens) [10]; 841 nM in the series with PLCG2-N (Homo sapiens); 850 nM in the series with PIK3R3-NC (Homo sapiens) [11]; 1310 nM with SHC2-PTB (Homo sapiens); 1590 nM with LYN (Homo sapiens). Moreover, the apparent Kd (screen) is 736 nM with TNS3 (Homo sapiens); 1820 nM in the series with SH2B (Homo sapiens); 300 nM in the series with BCAR3 (Homo sapiens); 1140 nM with RASA1-N (Homo sapiens) [12]; 2000 nM with VAV3 (Homo sapiens); 1030 nM in the series with SUPT6H (Homo sapiens). For the same substance, the apparent Kd (screen) was 466 nM with SRC (Homo sapiens); 547 nM in the series with PIK3R1-NC (Homo sapiens); 408 nM with CRK (Homo sapiens); 1170 nM with RASA1-NC (Homo sapiens) [13]; 390 nM in the series with PIK3R2-N (Homo sapiens); 216 nM in the series with VAV2 (Homo sapiens) [14]. Besides, the apparent Kd (screen) with SH2B3 (Homo sapiens) was 1600 nM; with PIK3R2-NC (Homo sapiens) it was 322 nM; with BLK (Homo sapiens) it was 751 nM; with TNS4 (Homo sapiens) [15], 334 nM; with SYK-C (Homo sapiens), 869 nM; with SYK-NC (Homo sapiens) [16], 1280 nM. Also, the apparent Kd (screen) in the series with FGR (Homo sapiens) was 546 nM; in the series with SHB (Homo sapiens) it was 1790 nM; in the series with SHC1-PTB (Homo sapiens) [17], 40 nM; in the series with ABL2 (Homo sapiens) [18] it was 490 nM; with PIK3R1-N (Homo sapiens) it was 404 nM; with GRB10 (Homo sapiens), 1290 nM. The apparent Kd (screen) with YES1 (Homo sapiens) is 98 nM; with NCK2 (Homo sapiens) [19] it was 380 nM; in the series with GRB14 (Homo sapiens), 1250 nM; with ITK (Homo sapiens) it was 1410 nM; with SH2D3C (Homo sapiens) it was 1910 nM; with SLA (Homo sapiens) [20] it was 2000 nM.
In the case of …pYWHSRLFP, the apparent Kd (screen) in the series with MATK (Homo sapiens) is 1870 nM; in the series with NCK2 (Homo sapiens) [21], 1900 nM; with TENC1 (Homo sapiens), 1250 nM; in the series with GRB7 (Homo sapiens) [22] it was 1690 nM; with TNS4 (Homo sapiens) [23], 850 nM; with HSH2D (Homo sapiens) it was 1700 nM. Further, the apparent Kd (screen) is 1980 nM with SYK-NC (Homo sapiens) [24], 1920 nM with RASA1-NC (Homo sapiens) [25], 604 nM in the series with ABL2 (Homo sapiens) [26] and 217 nM in the series with SHC1-PTB (Homo sapiens) [27].
